Patent US20250135018A1

T1: CD70 (UniProt P32970)
T1 sequence (looked up): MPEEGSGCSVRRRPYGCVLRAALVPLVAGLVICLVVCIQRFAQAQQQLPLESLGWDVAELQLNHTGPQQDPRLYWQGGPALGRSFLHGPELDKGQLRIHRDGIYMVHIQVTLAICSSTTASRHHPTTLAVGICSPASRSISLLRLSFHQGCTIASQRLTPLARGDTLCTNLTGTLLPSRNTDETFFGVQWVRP

B1: Ag3-Ex_4-1: h1F6 anti-CD70 antibody conjugated to MP-PEG4-Val-Lys-Gly-7-MAD-MDCPT, DAR=8 (antibody, INN chains, looked up, V domains shown)
VH: QVQLVQSGAEVKKPGASVKVSCKASGYTFTNYGMNWVRQAPGQGLKWMGWINTYTGEPTYADAFKGRVTMTRDTSISTAYMELSRLRSDDTAVYYCARDYGDYGMDYWGQGTTVTVSS
VL: DIVMTQSPDSLAVSLGERATINCRASKSVSTSGYSFMHWYQQKPGQPPKLLIYLASNLESGVPDRFSGSGSGTDFTLTISSLQAEDVAVYYCQHSREVPWTFGQGTKVEIK
modifications: MP-PEG4-Val-Lys-Gly-MDCPT conjugate, DAR 8
B2: Ag3-Ex_8-1a: h1F6 anti-CD70 antibody conjugated to MC-GGFG-NHCH2-DXd(1), DAR=8 (antibody, INN chains, looked up, V domains shown)
VH: B1 VH
VL: B1 VL
modifications: MC-GGFG-DXd conjugate, DAR 8

How the values were obtained:
Experiment in all cases: cell-based or functional assay
[1] = target: CD48 (UniProt P09326)
Sequence of CD48 (P09326 27-220 limits assumed): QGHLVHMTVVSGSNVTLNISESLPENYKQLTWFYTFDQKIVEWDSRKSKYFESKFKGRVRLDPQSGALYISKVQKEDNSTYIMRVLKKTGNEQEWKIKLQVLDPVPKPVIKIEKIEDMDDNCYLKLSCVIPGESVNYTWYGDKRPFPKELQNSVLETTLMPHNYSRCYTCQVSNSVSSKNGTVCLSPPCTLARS

[2] = target: NTB-A (UniProt Q96DU3)
Sequence of NTB-A (Q96DU3 22-332 limits assumed): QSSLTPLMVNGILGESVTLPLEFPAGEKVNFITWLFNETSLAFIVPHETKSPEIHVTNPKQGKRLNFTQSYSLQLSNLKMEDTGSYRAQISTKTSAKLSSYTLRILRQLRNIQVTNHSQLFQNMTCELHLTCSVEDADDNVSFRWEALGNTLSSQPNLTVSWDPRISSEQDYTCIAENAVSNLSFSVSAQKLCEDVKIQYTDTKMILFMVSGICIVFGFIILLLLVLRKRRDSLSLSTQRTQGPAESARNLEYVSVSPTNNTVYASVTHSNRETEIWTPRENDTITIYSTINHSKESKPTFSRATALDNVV

[3] = target: T1, CD70

Molecule	IC50 of cell growth (CellTiter-Glo, 96 h), EJM cells [1] [µg/mL]	IC50 of cell growth (CellTiter-Glo, 96 h), KMM-1 cells [1] [µg/mL]	IC50 of cell growth (CellTiter-Glo, 96 h), MM.1R cells [1] [µg/mL]	IC50 of cell growth (CellTiter-Glo, 96 h), NCI-H929 cells [1] [µg/mL]	IC50 of cell growth (CellTiter-Glo, 96 h), U-266 cells [1] [µg/mL]	percent cells remaining at highest concentration tested, EJM cells [1] [%]	percent cells remaining at highest concentration tested, KMM-1 cells [1] [%]	percent cells remaining at highest concentration tested, MM.1R cells [1] [%]	percent cells remaining at highest concentration tested, NCI-H929 cells [1] [%]	IC50 of cell growth (CellTiter-Glo, 96 h), EJM cells [2] [µg/mL]	IC50 of cell growth (CellTiter-Glo, 96 h), KMM-1 cells [2] [µg/mL]	IC50 of cell growth (CellTiter-Glo, 96 h), MM.1R cells [2] [µg/mL]	IC50 of cell growth (CellTiter-Glo, 96 h), NCI-H929 cells [2] [µg/mL]	IC50 of cell growth (CellTiter-Glo, 96 h), U-266 cells [2] [µg/mL]	percent cells remaining at highest concentration tested, KMM-1 cells [2] [%]	IC50 of cell growth (CellTiter-Glo, 96 h), 786-O cells [3] [µg/mL]	IC50 of cell growth (CellTiter-Glo, 96 h), Caki-1 cells [3] [µg/mL]	IC50 of cell growth (CellTiter-Glo, 96 h), Raji cells [3] [µg/mL]	IC50 of cell growth (CellTiter-Glo, 96 h), UM-RC-3 cells [3] [µg/mL]	percent cells remaining at highest concentration tested, 786-O cells [3] [%]	also measured
Ag4-Ex_4-1: hMEM102 anti-CD48 antibody conjugated to MP-PEG4-Val-Lys-Gly-7-MAD-MDCPT, DAR=8	0.053	0.018	0.004	0.006	0.017	27	16	1	2	–	–	–	–	–	–	–	–	–	–	–	percent cells remaining at highest concentration tested, U-266 cells [1]: 38%
Ag4-Ex_8-1a: hMEM102 anti-CD48 antibody conjugated to MC-GGFG-NHCH2-DXd(1), DAR=8	2.79	0.075	0.009	0.009	> 10	0	34	0	3	–	–	–	–	–	–	–	–	–	–	–	–
Ag5-Ex_4-1: h20F3 anti-NTB-A antibody conjugated to MP-PEG4-Val-Lys-Gly-7-MAD-MDCPT, DAR=8	–	–	–	–	–	–	–	–	–	0.15	0.177	0.005	0.08	0.097	16	–	–	–	–	–	percent cells remaining at highest concentration tested, EJM cells [2]: 31%; percent cells remaining at highest concentration tested, MM.1R cells [2]: 0%; percent cells remaining at highest concentration tested, NCI-H929 cells [2]: 2%; percent cells remaining at highest concentration tested, U-266 cells [2]: 28%
Ag5-Ex_8-1a: h20F3 anti-NTB-A antibody conjugated to MC-GGFG-NHCH2-DXd(1), DAR=8	–	–	–	–	–	–	–	–	–	7.19	5.29	0.177	2.93	> 10	45	–	–	–	–	–	–
B1	–	–	–	–	–	–	–	–	–	–	–	–	–	–	–	0.037	0.036	1.13	0.016	18	percent cells remaining at highest concentration tested, Caki-1 cells [3]: 24%; percent cells remaining at highest concentration tested, Raji cells [3]: 45%; percent cells remaining at highest concentration tested, UM-RC-3 cells [3]: 30%
B2	–	–	–	–	–	–	–	–	–	–	–	–	–	–	–	> 10	> 10	5.56	0.065	54	percent cells remaining at highest concentration tested, Caki-1 cells [3]: 68%; percent cells remaining at highest concentration tested, UM-RC-3 cells [3]: 40%
